Laboratory results as given in the supplement of paper PMC9170038.

Experiments:
MS2 coat protein [1] = test: apparent KD of MS2 coat protein, switch OFF state (with FMN for OFF switches, without FMN for ON switches); designed switch direction (-1 OFF switch, 1 ON switch): -1; higher = weaker reporter binding; settings: FMN input: 0 or 200 uM; Eterna round: R93 (includes R88 designs)
Procedure, shortened: (§1)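 Apparent KD stands for the median, per design, of fits to normalised cluster binding curves. The curves came from titrating on-chip-transcribed RNA switches on Illumina sequencing clusters with SNAP-549-labelled MS2 coat protein, twofold from 0.7 or 1.5 nM to 3 µM. Buffer was 100 mM Tris-HCl pH 7.5, 80 mM KCl, 4 mM MgCl2, without or with constant ligand.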

MS2 coat protein [2] = test: apparent KD of MS2 coat protein, switch ON state; designed switch direction (-1 OFF switch, 1 ON switch): -1; higher = weaker reporter binding; settings: FMN input: 0 or 200 uM; Eterna round: R93 (includes R88 designs)
Procedure, shortened: as §1

Sequence | apparent KD of MS2 coat protein (MS2 coat protein [1]) [nM] | apparent KD of MS2 coat protein (MS2 coat protein [2]) [nM]
AACAGUACAGGAUAUACAUGAGGAUCACCCAUGUCAGAAUUAAGCAGCGUAACACAAAGUAGAAGGGUAAUGGA [Ruby 18] | 41.1 | 46
AACAGUACAGGAUAUACAUGAGGAUCACCCAUGUGAGAAUUAAGUGGAGGACCACAAAGUAGAAGGGUACUGAA [Mat - Exclusion 3 - JL mod - D9] | 109 | 56.9
AACAGUACAGGAUAUACAUGAGGAUCACCCAUGUGAGAAUUAAGUGGCGUACCACAAAGUAGAAGGGUACUGGA [JL Maslow Revisted mod 16] | 173 | 35
AACAGUACAGGAUAUACAUGAGGAUCACCCAUGUGAGAAUUAAGUGGCGUACCACAAAGUAGAAGGGUACUGGA [Maslow Revisited] | 173 | 35
AACAGUACAGGAUAUACAUGAGGAUCACCCAUGUGGGAAUUAAGUGGCGUACCACAAUGUAGAAGGGUACUGGA [JL In the Red] | 228 | 129
AACAGUACAGGAUAUACAUGAGGAUCACCCAUGUGGGUAAAAAGAUCGAGAGAUCAAUGUAGAAGGGUACUGGA [JL In the Red 04] | 104 | 259
AACAUACAUGAGGAUCACCCAUGUCAGGAUAUGCCGGGUUAGAAAAAAAAAAAAAAACGUAGAAGGGACAAAAA [Bilbo Confounded 3 - Jieux - Exclusion 1] | 62.2 | 62.4
AACAUGUAAGGAUAUUGAAGAAAAGAAAAGAAAGAAAAGAACAAGAAGGUACAUGAGGAUCACCCAUGUAAGAA [EteRNA is fun!] | 18.6 | 33.7
AACAUGUCAGGAUAUAAAAGAAAAGAAAAGAAAGAAAAGAAUUAGAAGGGACAUGAGGAUCACCCAUGUAAGAA [EteRNA is fun!] | 28.9 | 33
AACUGACAUGAGGAUCACCCAUGUCAGGAUAUGACAUCGAAAAAUAAAUAAAUCGUUGUCAGAAGGGACAUGGA [Design 74: Sub-opt RB] | 38 | 25.1
AACUGACAUGAGGAUCACCCAUGUCAGGAUAUGCUUAAUAAAAAAAAAAAAAAAUGAUGCAGAAGGGAUAUGGG [Amethyst 56] | 18.9 | 23.7
AACUGACAUGAGGAUCACCCAUGUCAGGAUAUGCUUCAUAAAAAAAAAAAAAAAUGAUGCAGAAGGGACAUGAA [Design 25 :P Sub-opt 1] | 14.1 | 13
AACUGUACAGGAUAUACAUGAGGAUCACCCAUGUGAGAAUUAAGUGGAAAACCACAAAGUAGAAGGGUACAGGA [Mat - Exclusion 3 - JL mod - D18] | 136 | 27.6
AACUGUACAGGAUAUACAUGAGGAUCACCCAUGUGAGAAUUAAGUGGAGAACCACAAAGUAGAAGGGUACAGGA [Mat - Exclusion 3 - JL mod - D17] | 218 | 45.7
AAGAAACAUGAGGAUCACCCAUGUCAGGAUAUCGAAGAAAGAAAGAAAGAAAGAAGAACGAGAAGGGACAAAGG [Gaius Iulius Aquila] | 60.4 | 44.4
AAGAAACGAGGAUAUACAUGAGGAUCACCCAUGUAAAAGAAAGAAAAGGGAAAGAAAAGUAGAAGGCGUAAGAA [Usermaatre-sekheperenre Ramesses V] | 37 | 30.4
AAGAACAAAGGAUAUACAAGGAAGAAAGAAAAGAAAAGAAAACAUGAGGAUCACCCAUGUAGAAGGUUGUAGAA [EteRNA is fun!] | 20.7 | 24.7
AAGAACACAGGAUAUACAUGAGGAUCACCCAUGUAAAAGAAAGAAGGGAAAGAGAAAAGUAGAAGGGUGAAGAA [Ker] | 36.6 | 33.1
AAGAACAGAGGAUAUACAAAAUAAAAGAAAAGAAAGAAAGAACAUGAGGAUCACCCAUGUAGAAGGCUGAAGAA [Sonbef] | 24.1 | 28.2
AAGAACAGAGGAUAUACAUGAGGAUCACCCAUGUAAAAGAAAGAGGGAAAAGAGAAAAGUAGAAGGCUGAAGAA [Arsinoe III] | 31 | 26.9
AAGAACCGAGGAUAUACAUGAGGAUCACCCAUGUAAAAGAAAGAGGGAAAAGAGAAAAGUAGAAGGCGGAAGAA [Berenice I] | 57.4 | 26.2
AAGAACGGAGGAUAUACAUGAGGAUCACCCAUGUAAAAGAAAGAAAAGGGAAAGAAAAGUAGAAGGCCGAAGAA [Djeserkare Amenhotep I] | 51.3 | 39.8
AAGAAGAGAGGAUAUACAAAAUAAAAGAAAAGAAAGAAAGAACAUGAGGAUCACCCAUGUAGAAGGCUCAAGAA [Hotepibre Qemau Siharnedjheritef] | 28.4 | 25.6

Sequence | apparent KD of MS2 coat protein (MS2 coat protein [1]) [nM] | apparent KD of MS2 coat protein (MS2 coat protein [2]) [nM]
AAGAAGGUAGGAUAUACUAGGGCAACUAAUGCAAAGAUAAAACAUGAGGAUCACCCAUGUAGAAGGGCCAGAAA [JR_Exc002_Sub401] | 35.4 | 33.8
AAGAAGUAAGGAUAUCGUGCUCGUCACAAAAGUGAUGAGUACGAGAAGGUACAUGAGGAUCACCCAUGUAAAGA [Opal 35] | 21.9 | 24.6
AAGAAGUAAGGAUAUGCUGCUCGUCACAAAAGUGAUGAGUAGCAGAAGGUACAUGAGGAUCACCCAUGUUAAGA [JL eternac mod 4] | 20.6 | 24.4
AAGAAGUCAGGAUAUCGAAAAGAAAAGAAAAGAAAAGAAAACGAGAAGGGACAUGAGGAUCACCCAUGUAAGAA [Smerdis] | 25.7 | 46.5
AAGAAGUCAGGAUAUGCUGCUCGUCACUUGCGUGAUGAGUAGCAGAAGGGACAUGAGGAUCACCCAUGUAAAGA [Exclusion4-cac2] | 65.6 | 50.7
AAGAAGUCAGGAUAUGCUGCUCGUCACUUGCGUGAUGAGUAGCAGAAGGGACAUGAGGAUCACCCAUGUAAAGA [Opal 14] | 65.6 | 50.7
AAGAAGUGAGGAUAUCGAAGACUGUCGAAAAGACAGUCGAACGAGAAGGCACAUGAGGAUCACCCAUGUGAGGG [Marsurpial 65% 3] | 69.9 | 130
AAGAAGUGAGGAUAUCGUUGUCGUCACAAAAGUGAUGACGACGAGAAGGCACAUGAGGAUCACCCAUGUAAAGA [Opal 28] | 43 | 37.8
AAGAAGUGAGGAUAUGUCUGUGCGAAAAAAAAAAAGUGCAGACAGAAGGCACAUGAGGAUCACCCAUGUAAAAA [Florian 65% 2] | 48.1 | 37.5
AAGAAUCGAGGAUAUACAUGAGGAUCACCCAUGUAAAAGAAAGAAGGGAAAGAGAAAAGUAGAAGGCGAAAGAA [Menkheperre Nekau I] | 27.7 | 22.6
AAGAAUGGAGGAUAUACAAAAUAAAAGAAAAGAAAGAAAGAACAUGAGGAUCACCCAUGUAGAAGGCCAAAGAA [Khasekhemre Neferhotep I] | 24.7 | 33.6
AAGAGUAGAGGAUAUACAUGAAAAGAGUCGAAAGACUCAAAACAUGAGGAUCACCCAUGUAGAAGGCUACUCAA [Hyphema Seclusion Mod 62% 3] | 81.4 | 137
AAGAGUAGAGGAUAUAUAUGAAAAGAGUCGAAAGACUCAAAACAUGAGGAUCACCCAUGUAGAAGGCUACUCAA [Hyphema Seclusion mod] | 17.5 | 18.7
AAGAUGUAAGGAUAUGCUGCUCGUCACAAAAGUGAUGAGUAGCAGAAGGUACAUGAGGAUCACCCAUGUAAAGA [JL eternac mod 10] | 44 | 31.5
AAGGGACAUGAGGAUCACCCAUGUAAGGAUAUCGGAAAAGGAAAAAAAAAAAAGAAGACGAGAAGGUACAAAAA | 71.6 | 122
AAGGGACAUGAGGAUCACCCAUGUGAGGAUAUGACGUAAAUAAAGAAAGAAGAAAUCGUCAGAAGGCACACCAA [55%, Disencluded 2, 3] | 117 | 67
AAGGGACAUGAGGAUCACCCAUGUUAGGAUAUGCUAUGGAAAAUAAAAUAAAAACAUAGCAGAAGGAACAAAAA [Mat - Exclusion 1 - Eli mod - D36] | 60.5 | 43.2
AAGGUAGGAGGAUAUACAUAGAUACAGAUACAUGUAGACGUACAUGAGGAUCACCCAUGUAGAAGGCCUAUAUA [Mat - Same state - Mayanna Mod - D147] | 107 | 97.3
AAGUGCGCAGGAUAUACAUGAGGAUCACCCAUGUAAAGAAAAGAAAGAUCCGAAGAAAGUAGAAGGGCGUGCAA [Variant 1 of Mod 1 of Ex3 sub 3, by Tesla's Dusciple Round 1] | 209 | 49.6
AAUAUGUCAGGAUAUGUGUAAAGAAUAAAAGAAAUAACAACACAGAAGGGACAUGAGGAUCACCCAUGUCAACA [May 33] | 18 | 24.8
AAUGGUGCAGGAUAUACAUGAGGAUCACCCAUGUAGAUCAGACAUAUGGUCGAAACAUGUAGAAGGGCACCAAA [Ex 3May 54] | 319 | 112
AAUGUACGAGGAUAUACAUAGAUACAGAUACAUGUAGACGUACAUGAGGAUCACCCAUGUAGAAGGCGUAUAUA [Mat - Same state - Mayanna Mod - D113] | 172 | 82.8
